Test results: paper PMC3161508 (Advances in experimental medicine and biology, 2010)

Target: the molecule itself
Experiment: non-reducing SDS-PAGE and Western blotting

B1: cone CNG channel β subunit CNGB3 (natural protein, mouse (endogenous in retina), UniProt Q9JJZ9 1-694, looked up)
chain: MLKSLTVKFNKVNPMEGRMEKKLCPNLSSLSQPTIAQGDNQSEKEPLRSRTPITFEKSHSKEDNSTGENSLRDFTPNPDPECRAELTRTMAEMEKTRTGKERPVSFKTKVLETSIINEYTDAHLHNLVERMRERTALYKKTLTEEENFPEVEASSQTAMSTNISPKQENNSKLKEHQDTFSFKPQRVPVKEHLRRMILPRSIDSYTDRVYLLWLLLVTIAYNWNCWLLPVRLVFPCQTPDNKNYWIITDIVCDIIYLCDILLIQPRLQFVRGGEIIVDSNELKRNYRSSTKFRMDVASLLPFEVLYIFFGVNPIFRANRILKYTSFFEFNHHLESIMDKAYVYRVIRTTGYLLFLLHINACVYYWASDYEGIGSTKWVYNGEGNKYLRCFYWAVRTLITIGGLPEPQTSFEIVFQFLNFFSGVFVFSSLIGQMRDVIGAATANQNYFQACMDHIIAYMNKYSIPQSVQYRVRTWLEYTWNSQRILDESNLLENLPTAMQLSIALDINFSIIDKVELFKGCDTQMIYDLLLRLKSTIYLPGDFVCKKGEIGKEMYIIKHGEVQVLGGPDGAQVLVTLKAGSVFGEISLLAKGGGNRRTADVVAHGFANLLTLDKKTLQEILLHYPTSKKLLMKKAKILLSQKGKTTQAIPARPGPAFLFPPKEETPRMLKVLLGNTGKVDLGRLLKGKRKTTTQK
In the case of B1, the “stoichiometry N” value is reported as 2.
